Target: T1, recombinant uracil-DNA-glycosylase inhibitor (rUgi), P14739
T1 chain: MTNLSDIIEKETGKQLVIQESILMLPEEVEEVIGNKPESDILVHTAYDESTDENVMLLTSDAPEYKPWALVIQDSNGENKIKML

B1: uracil-DNA-glycosylase (UDG) (protein)
chain: ANELTWHDVLAEEKQQPYFLNTLQTVASERQSGVTIYPPQKDVFNAFRFTELGDVKVVILGQDPYHGPGQAHGLAFSVRPGIAIPPSLLNMYKELENTIPGFTRPNHGYLESWARQGVLLLNTVLTVRAGQAHSHASLGWETFTDKVISLINQHREGVVFLLWGSHAQKKGAIIDKQRHHVLKAPHPSPLSAHRGFFGCNHFVLANQWLEQRGETPIDWMPVLPAESE
Q: With B1 as the protein, how does the “digestion of DNA-dUTP by UDG 1/35 (agarose gel), without and after 10 min at 90 C” value read?
A: The value was “the two dilutions of Ugi indeed inhibit the digestion of DNA by UDG (lanes D and G); after a treatment of 10 minutes at 90° C., the Ugi remains active because it still inhibits the UDG (lanes J and M)”.

Q: What about the “digestion of DNA-dUTP by UDG 1/35, 60 min at 37 C (agarose gel)” value of the same protein?
A: The value was “the two dilutions of Ugi indeed inhibit UDG (lanes D and G)”.

Q: And the “digestion of DNA-dUTP by UDG (agarose gel), UDG 1/25” value?
A: The value was “at the highest concentration of UDG, the UDG activity may be inhibited by Ugi at 1/20 000 but not at 1/30 000”.

Q: What about the “digestion of DNA-dUTP by UDG (agarose gel), UDG 1/50” value of the same protein?
A: Its value is “at the lowest concentration of UDG, the UDG activity is inhibited both by Ugi at 1/20 000 and at 1/30 000”.
